Results as given in the supplement of paper PMC9112550, “Optimization of the antimicrobial peptide Bac7 by deep mutational scanning” (BMC Biology, 2022).

The sequences below were run on Escherichia coli TOP10 (assay: shrunken log2 fold change of peptide-encoding DNA abundance (4.5 h post-induction vs induction); higher = less antimicrobial activity (less host growth inhibition)). Conditions: time post-induction: 4.5 h; library: site-saturation at positions 5, 18, 19, 20.
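Further: peptides expressed intracellularly from a pBAD plasmid library in pooled LB shake-flask culture, induced with 0.3% L-arabinose, DNA abundance read by NGS, three biological replicates, DESeq2 with apeglm shrinkage.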

Row | Sequence | shrunken log2 fold change
1 | RRIRFRPPRLPRPRPRPQTRPRP | 0.149
2 | RRIRGRPPRLPRPRPRPGCFPRP | 1.1
3 | RRIRTRPPRLPRPRPRPDWLPRP | 0.514
4 | RRIRIRPPRLPRPRPRPCMFPRP | -0.738
5 | RRIRCRPPRLPRPRPRPQDFPRP | 0.0295
6 | RRIRRRPPRLPRPRPRPNWDPRP | -0.0988
7 | RRIRARPPRLPRPRPRPFRAPRP | 0.0497
8 | RRIRWRPPRLPRPRPRPVIKPRP | -0.226
9 | RRIRNRPPRLPRPRPRPDCHPRP | 0.081
10 | RRIRGRPPRLPRPRPRPCVLPRP | 0.158
11 | RRIRPRPPRLPRPRPRPDQCPRP | 0.139
12 | RRIRHRPPRLPRPRPRPDFMPRP | -0.0635
13 | RRIRSRPPRLPRPRPRPQSCPRP | -0.00487
14 | RRIRKRPPRLPRPRPRPSMTPRP | -0.0765
15 | RRIRYRPPRLPRPRPRPHCMPRP | -0.161
16 | RRIRIRPPRLPRPRPRPIKMPRP | -0.177
17 | RRIRARPPRLPRPRPRPATEPRP | 0.795
18 | RRIRRRPPRLPRPRPRPRYMPRP | -0.378
19 | RRIRARPPRLPRPRPRPVFVPRP | 0.179
20 | RRIRGRPPRLPRPRPRPSSNPRP | 0.369
21 | RRIRLRPPRLPRPRPRPLLAPRP | 0.188
22 | RRIRCRPPRLPRPRPRPHHFPRP | -0.219
23 | RRIRNRPPRLPRPRPRPMASPRP | -0.0269
24 | RRIRPRPPRLPRPRPRPWHMPRP | -0.0632
25 | RRIRGRPPRLPRPRPRPHSFPRP | 2.05

Row | Sequence | shrunken log2 fold change
26 | RRIRIRPPRLPRPRPRPNISPRP | -0.199
27 | RRIRTRPPRLPRPRPRPGYIPRP | -0.288
28 | RRIRCRPPRLPRPRPRPFFPPRP | -0.167
29 | RRIRSRPPRLPRPRPRPWEEPRP | 0.0166
30 | RRIRYRPPRLPRPRPRPPINPRP | -0.378
31 | RRIRQRPPRLPRPRPRPDACPRP | 0.0301
32 | RRIRERPPRLPRPRPRPNQEPRP | 0.0174
33 | RRIRERPPRLPRPRPRPNSTPRP | -0.495
34 | RRIRNRPPRLPRPRPRPERNPRP | -0.0623
35 | RRIRKRPPRLPRPRPRPAHIPRP | -0.137
36 | RRIRMRPPRLPRPRPRPNNQPRP | -0.0328
37 | RRIRWRPPRLPRPRPRPYTDPRP | 0.102
38 | RRIRDRPPRLPRPRPRPVQTPRP | -0.0375
39 | RRIRERPPRLPRPRPRPCDVPRP | -0.017
40 | RRIRIRPPRLPRPRPRPTNMPRP | -0.427
41 | RRIRIRPPRLPRPRPRPVWRPRP | 0.391
42 | RRIRGRPPRLPRPRPRPWATPRP | 0.959
43 | RRIRFRPPRLPRPRPRPHLTPRP | -0.226
44 | RRIRCRPPRLPRPRPRPLFHPRP | -0.429
45 | RRIRDRPPRLPRPRPRPEPNPRP | 0.746
46 | RRIRRRPPRLPRPRPRPWCQPRP | -0.26
47 | RRIRMRPPRLPRPRPRPLYCPRP | -0.396
48 | RRIRLRPPRLPRPRPRPNYPPRP | -0.156
49 | RRIRLRPPRLPRPRPRPCDHPRP | -0.239
50 | RRIRMRPPRLPRPRPRPTTWPRP | 0.745

Row | Sequence | shrunken log2 fold change
51 | RRIRPRPPRLPRPRPRPYRHPRP | -0.483
52 | RRIRHRPPRLPRPRPRPKNAPRP | -0.223
53 | RRIRLRPPRLPRPRPRPMESPRP | -0.0323
54 | RRIRWRPPRLPRPRPRPPWFPRP | 0.218
55 | RRIRGRPPRLPRPRPRPKNRPRP | 0.368
56 | RRIRIRPPRLPRPRPRPPKRPRP | 0.0802
57 | RRIRWRPPRLPRPRPRPCKWPRP | -0.275
58 | RRIRVRPPRLPRPRPRPPWPPRP | 0.464
59 | RRIRSRPPRLPRPRPRPGMQPRP | -0.394
60 | RRIRQRPPRLPRPRPRPEPFPRP | -0.00936
61 | RRIRMRPPRLPRPRPRPVAEPRP | 2.88
62 | RRIRERPPRLPRPRPRPGTVPRP | -0.973
63 | RRIRFRPPRLPRPRPRPTSMPRP | -0.00284
64 | RRIRARPPRLPRPRPRPKWNPRP | 0.286
65 | RRIRQRPPRLPRPRPRPKLKPRP | -0.0236
66 | RRIRGRPPRLPRPRPRPGKYPRP | -0.265
67 | RRIRMRPPRLPRPRPRPFWEPRP | 0.0748
68 | RRIRERPPRLPRPRPRPPWAPRP | 0.176
69 | RRIRGRPPRLPRPRPRPCSFPRP | 0.2
70 | RRIRQRPPRLPRPRPRPCPEPRP | -0.249
71 | RRIRWRPPRLPRPRPRPTETPRP | 0.0028
72 | RRIRHRPPRLPRPRPRPQISPRP | -0.0457
73 | RRIRERPPRLPRPRPRPWDPPRP | 0.173
74 | RRIRPRPPRLPRPRPRPLWQPRP | 0.0105
75 | RRIRLRPPRLPRPRPRPYNGPRP | -0.103

Row | Sequence | shrunken log2 fold change
76 | RRIRIRPPRLPRPRPRPFLKPRP | -0.341
77 | RRIRNRPPRLPRPRPRPQLIPRP | -0.0323
78 | RRIRCRPPRLPRPRPRPFYQPRP | -0.163
79 | RRIRVRPPRLPRPRPRPCSPPRP | -0.137
80 | RRIRVRPPRLPRPRPRPYTNPRP | -0.656
81 | RRIRARPPRLPRPRPRPTLHPRP | 0.584
82 | RRIRVRPPRLPRPRPRPRWTPRP | -0.142
83 | RRIRFRPPRLPRPRPRPAAMPRP | 1.58
84 | RRIRARPPRLPRPRPRPKHMPRP | -0.158
85 | RRIRPRPPRLPRPRPRPNMLPRP | -0.367
86 | RRIRQRPPRLPRPRPRPSRNPRP | -0.0593
87 | RRIRERPPRLPRPRPRPRSGPRP | -0.049
88 | RRIRQRPPRLPRPRPRPLLPPRP | 0.0127
89 | RRIRVRPPRLPRPRPRPFLLPRP | -0.769
90 | RRIRVRPPRLPRPRPRPWRDPRP | 0.202
91 | RRIRCRPPRLPRPRPRPEVFPRP | 0.00979
92 | RRIRIRPPRLPRPRPRPLWLPRP | -0.208
93 | RRIRARPPRLPRPRPRPEKIPRP | 0.649
94 | RRIRGRPPRLPRPRPRPIMQPRP | 0.105
95 | RRIRVRPPRLPRPRPRPILYPRP | 0.0692
96 | RRIRTRPPRLPRPRPRPWPLPRP | 0.0506
97 | RRIRYRPPRLPRPRPRPYIRPRP | -1.92e-05
98 | RRIRSRPPRLPRPRPRPKFNPRP | -0.573
99 | RRIRHRPPRLPRPRPRPECCPRP | 0.203
100 | RRIRERPPRLPRPRPRPGCHPRP | -0.0878

Row | Sequence | shrunken log2 fold change
101 | RRIRWRPPRLPRPRPRPFRGPRP | 0.0269
102 | RRIRFRPPRLPRPRPRPWPQPRP | 0.127
103 | RRIRHRPPRLPRPRPRPTWCPRP | 0.582
104 | RRIRLRPPRLPRPRPRPQVPPRP | -0.0408
105 | RRIRGRPPRLPRPRPRPLFHPRP | 0.134
106 | RRIRRRPPRLPRPRPRPNIIPRP | -0.0888
107 | RRIRKRPPRLPRPRPRPTIEPRP | 0.236
108 | RRIRYRPPRLPRPRPRPRATPRP | -0.0516
109 | RRIRMRPPRLPRPRPRPHYLPRP | 0.106
110 | RRIRGRPPRLPRPRPRPLDIPRP | -0.0476
111 | RRIRNRPPRLPRPRPRPCPEPRP | 0.113
112 | RRIRKRPPRLPRPRPRPICWPRP | 0.239
113 | RRIRIRPPRLPRPRPRPYMSPRP | -1.19
114 | RRIRIRPPRLPRPRPRPTHLPRP | -0.0268
115 | RRIRHRPPRLPRPRPRPNWIPRP | -0.19
116 | RRIRQRPPRLPRPRPRPQKIPRP | -0.29
117 | RRIRCRPPRLPRPRPRPGLTPRP | 0.108
118 | RRIRLRPPRLPRPRPRPPLLPRP | 0.158
119 | RRIRARPPRLPRPRPRPYFPPRP | -0.418
120 | RRIRNRPPRLPRPRPRPKQFPRP | -0.214
121 | RRIRNRPPRLPRPRPRPYGPPRP | -0.00663
122 | RRIRGRPPRLPRPRPRPMQSPRP | 0.47
123 | RRIRGRPPRLPRPRPRPWCHPRP | -0.0582
124 | RRIRSRPPRLPRPRPRPSQRPRP | -0.0585
125 | RRIRYRPPRLPRPRPRPNNFPRP | -0.418
